Data taken from article PMC8599861, “Structures of prokaryotic ubiquitin-like protein Pup in complex with depupylase Dop reveal the mechanism of catalytic phosphate formation” (Nature Communications, 2021).

Target: Prokaryotic ubiquitin-like protein Pup from Corynebacterium glutamicum with C-terminal glutamate (Corynebacterium glutamicum) (UniProt Q8NQE0)
Test: ITC; 25 °C, MicroCal iTC200; 150 µM CgluDop or 200 µM CgluDopGS injected into 15 or 20 µM CgluPupE in the cell; 50 mM Tris-HCl pH 8.0, 300 mM NaCl, 20 mM MgCl2; 1:1 binding model

Chain of Prokaryotic ubiquitin-like protein Pup from Corynebacterium glutamicum with C-terminal glutamate (Corynebacterium glutamicum) (Q8NQE0 whole entry): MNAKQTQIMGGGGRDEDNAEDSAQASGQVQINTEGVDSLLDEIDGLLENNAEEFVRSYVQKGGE

CgluDopGS, Dop-loop variant of Dop from Corynebacterium glutamicum (Dop-loop H43-I77 replaced with (GS)4) (enzyme)
fold tighter affinity than the wild type enzyme: 2.5 fold
